{"source": "the nanobody polyreactivity screen of Harvey et al. (2022)", "data": [{"assay": "yeast display, Sf9 membrane polyspecificity reagent, FACS + sequencing; frameworks hold sequencing errors", "summary_of_the_method": "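Galactose-induced (36–48 hours) yeast carrying a synthetic nanobody display library were exposed to 10% biotinylated, detergent-solubilized Sf9 membrane reagent at 4 °C for 1 hour. FACS followed streptavidin microbead enrichment, using low and high (top ~1%) gates for expression (anti-HA) and reagent binding (streptavidin). Colony PCR, MiSeq 2 × 250 sequencing and CDR-length filtering followed. Labels for polyreactivity reflect the gate of origin.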", "values": [{"sequence": "QVQLVESGGGLVQAGGSLRLSCAASGFIFTDNAMGWYRQAPGKDREFVAAITYSGGSTYYADSVKGRFTISRDNAKNTVYFQMNSLKPVDTAVYYCNKDVFPAPGGVTAYEYEYWGQGTQVTVSS", "polyreactivity (PSR sort gate)": "low polyreactivity"}, {"sequence": "QVQLVESGGGLVQAGGSLRLSCAASGFIFTDYAMGWYRQAPGKEREFVAAIDWSGGNTYYADSVKGRFTISRDNAKNTVYLLMNSLKPEDTAVYYCADSGSAREYDYWGQGTQVTVSS", "polyreactivity (PSR sort gate)": "low polyreactivity"}, {"sequence": "QVQLVESGGGLVQAGGSLRLSCAASGFIFTGNAMGWYRQAPGKERELVAAITQSGGHTSYADSVKGRFTISRDNAKNTVYLQMNSLKPEDTAVYYCNAEYTWPYHGVRNGWFNFKYEYWGQGTQVTVSS", "polyreactivity (PSR sort gate)": "low polyreactivity"}, {"sequence": "QVQLVESGGGLVQAGGSLRLSCAASGFIFTGYAMGWYRPAPRKERELVAAITKSGGSTYYADSVKGRFTISRDNAKNTVYLQMNSLKPEDTAVYYFNTYVWRWSKGGYWGHGTQVTVSS", "polyreactivity (PSR sort gate)": "high polyreactivity"}, {"sequence": "QVQLVESGGGLVQAGGSLRLSCAASGFIFTGYAMGWYRQAPGKERELVAAISRRGGSTYYADSVKGRFTISRDNAKNTVYLQMNSLKPEDTAVYYCAARTRTNGFDDWGQGTQVTVSS", "polyreactivity (PSR sort gate)": "high polyreactivity"}, {"sequence": "QVQLVESGGGLVQAGGSLRLSCAASGFIFTKYTKGWYRPAPGTERELVAAIRSDGVRTYYADSVKGRFTISRDNAKNTVYLQMNSLKPEDTAVYYCAAYKAVPHYYYWGQGTQVTVSS", "polyreactivity (PSR sort gate)": "high polyreactivity"}, {"sequence": "QVQLVESGGGLVQAGGSLRLSCAASGFIFTKYTMGWYRQAAGKVRELVAAIDSGGNTYADSVKGRFTISRDNAKNTVYLHMNSLKPEDTAVYYCAVDGGEFSSYGYWGQGTQVTVSS", "polyreactivity (PSR sort gate)": "low polyreactivity"}, {"sequence": "QVQLVESGGGLVQAGGSLRLSCAASGFIFTKYTMGWYRQAPGKERELVAAITGRGTSTYADSVKGRFTISRDNAKNTVYLQMNSLKPEDTAVYYCAAVGWFADFLFSDINGYYWGQGTQVTVSS", "polyreactivity (PSR sort gate)": "low polyreactivity"}, {"sequence": "QVQLVESGGGLVQAGGSLRLSCAASGFIFTLYTMGWYRPAPGKERELVAAISGRGGYTYYADSVKGRFTISRDNAKNTVYLHMNSLKPEDTAVYYCARAAYGFRARSGGDYWGQGTQVTVSS", "polyreactivity (PSR sort gate)": "high polyreactivity"}, {"sequence": "QVQLVESGGGLVQAGGSLRLSCAASGFIFTNYAIGWYRQAPGKVRELVATISSGGGSTYYADSVKGRFTISRDNAKNTVYLQMNSLKQEDTAVYYCAASRRITGIRYINRYEYWGQGTQVTVSS", "polyreactivity (PSR sort gate)": "high polyreactivity"}, {"sequence": "QVQLVESGGGLVQAGGSLRLSCAASGFIFTNYAMGWYRQAPGKERELVAAITRRGGGTYYADSVKGRFTISRDNAKNTVYLQMNSLKPEDTAVYYCAKYSRLVTANDYDYWGQGTQVTVSS", "polyreactivity (PSR sort gate)": "high polyreactivity"}, {"sequence": "QVQLVESGGGLVQAGGSLRLSCAASGFIFTPYTMGWYRQAPGKERELVAAITDGSSTYYADSVKGRFTISRDNAKNTVYLQMNSLKPEDTAVYYCNADGKPPYISWLYDYWGQGTQVTVSS", "polyreactivity (PSR sort gate)": "low polyreactivity"}, {"sequence": "QVQLVESGGGLVQAGGSLRLSCAASGFIFTRYAMGWYRQAPGKERELVARISGGGGSTYYADSVKGRFTISRDNAKNTVYLQMNSLKPEDTAVYYCNARWYPYISRYGIEARYDYWGQGTQVTVSS", "polyreactivity (PSR sort gate)": "high polyreactivity"}, {"sequence": "QVQLVESGGGLVQAGGSLRLSCAASGFIFTTYAMGWYRQAPGKERELVAAISSSGTTYYADSVKGRFTISRDNAKNTVYLQMNSLKPEDTAVYYCAARRQFRSYQQRLYYWGQGTQVTVSS", "polyreactivity (PSR sort gate)": "low polyreactivity"}, {"sequence": "QVQLVESGGGLVQAGGSLRLSCAASGFIFTTYAMGWYRQAPGKERELVAAISYRTGRTFYADSVKGRFTISRDNAKNTVYLQMNSLKPEDTAVYYCAAGTIQTVTTYWWTYRIGLGYWGQGTKVTVSS", "polyreactivity (PSR sort gate)": "high polyreactivity"}, {"sequence": "QVQLVESGGGLVQAGGSLRLSCAASGFIFTTYAMGWYRQEPGTERELVAAISGRGGTTYYADSVKGRFTISRDNAKNTVYLQMNSMKPEDTAVYYCAADGYPGDDYWGQGTQVTVSS", "polyreactivity (PSR sort gate)": "high polyreactivity"}]}]}
